Where a SMILES comes first, the peptide text is derived from it. Bridges are numbered along the chain shown (N, C = ends). The star is where a group is joined. NODAGA = O=C(O)CN1CCN(CC(=O)O)CCN(C(CCC(=O)*)C(=O)O)CC1
How the values were obtained:
[1] = target: T1, rat tail collagen (Rattus norvegicus, UniProt P02454+P02466); assay: rat tail collagen-binding assay; details: 2 hours at room temperature, single binding site model
T1 construct: from tissue; host or cells: rat tail
Description: Binding isotherms were obtained by following a method previously reported. (Caravan, P., Das, B., Dumas, S., Epstein, F. H., Helm, P. A., Jacques, V., Koerner, S., Kolodziej, A., Shen, L., Sun, W., Zhang, Z., Angewandte Chemie, 2007, 119(43), 8319-8321.) Briefly, increasing concentrations of a mixture of ^63/65Cu-CBP(n) and ^64Cu-CBP(n) were added to collagen containing wells. […] An aliquot of each solution was reserved as a measure of the total concentration. The plates were incubated on a shaker table (300 rpm) for 2 hours at room temperature to allow the compound to bind. After 2 hours, the supernatant from each well (with or without collagen) was assayed for ^64Cu content. The relative amount of free, unbound compound in the sample supernatants and the amount of compound in the reserved (total) sample were determined by using a gamma counter. The bound concentration is [Total]−[Free]. The concentration of ^63/65Cu-CBP(n) was less than the collagen concentration and the data were fit to a model of a single binding site with dissociation constant, Kd.

[2] = in vivo; assay type: in vivo, mouse; details: male, C57/BL6, mouse, in vivo, iv, total radioactivity; for tissue uptake at 2 h / tissue uptake at 2.5 h: Biodistribution % ID/g
Description: (§1) Pulmonary fibrosis was induced in 7-8-week-old male C57/BL6 mice by transtracheal administration of bleomycin (BM; 2.5 U/kg) in 50 μL of PBS under direct vision using a small cervical incision. Sham animals received only PBS. Animals were placed in a small-animal PET/SPECT/CT scanner (Triumph; TriFoil Imaging), equipped with inhalation anesthesia and heating pad. Each animal was anesthetized with isoflurane (4% for induction, 2-2.5% for maintenance in medical air) and body temperature was kept at 37-38° C. using a heating pad. The femoral vein was cannulated for intravenous delivery of the PET agent. Each mouse was injected with approximately 0.1 mL and 20-50 μCi of ^64Cu-CBP(n), 0.1 mL and 20-50 μCi of ^68Ga-CBP(n) and 0.1 mL and 10-20 μCi of Al^18F-CBP(n) in a 18 mM solution of sucrose in water, followed by saline flush. […] The lungs, blood, urine, heart, liver, left rectus femoris muscle, spleen, small intestine, kidneys, left femur bone were collected from all animals. The tissues were weighed, and radioactivity in each tissue was measured on a gamma counter (CobraII Auto gamma; Packard). The radioactivity in the lung was reported as percent injected dose per gram corrected with the average sham weight, which was calculated by dividing the counts of ^64Cu per average sham tissue weight in gram by the total of counts of the injected dose. The radioactivity in every other tissue was reported as percent injected dose per gram (% ID/g), which was calculated by dividing the counts of ^64Cu per gram of tissue by the total of counts of the injected dose. A p-value of less than 0.05 was considered significant. Uncertainties are expressed as the standard error of the mean.

[3] = tested on: pulmonary fibrosis, C57/BL6 mice (bleomycin or sham); assay: in vivo; assay type: in vivo, mouse; details: for lung uptake in BM-treated (fibrotic) mice compared to sham, in words: biodistribution 2.5 hours after injection; for Biodistribution % ID/g, blood / Biodistribution % ID/g, heart / Biodistribution % ID/g, kidney / Biodistribution % ID/g, liver / Biodistribution % ID/g, lungs / Biodistribution % ID/g, sm. intestine / Biodistribution % ID/g, spleen / Biodistribution % ID/g, bone: male, C57/BL6, mouse; for Biodistribution % ID/g, blood / Biodistribution % ID/g, heart / Biodistribution % ID/g, kidney / Biodistribution % ID/g, liver / Biodistribution % ID/g, lungs / Biodistribution % ID/g, sm. intestine / Biodistribution % ID/g, spleen / route of excretion / Biodistribution % ID/g, bone: iv
Description: as §1

T1 sequence (P02454 152-1207 limits assumed): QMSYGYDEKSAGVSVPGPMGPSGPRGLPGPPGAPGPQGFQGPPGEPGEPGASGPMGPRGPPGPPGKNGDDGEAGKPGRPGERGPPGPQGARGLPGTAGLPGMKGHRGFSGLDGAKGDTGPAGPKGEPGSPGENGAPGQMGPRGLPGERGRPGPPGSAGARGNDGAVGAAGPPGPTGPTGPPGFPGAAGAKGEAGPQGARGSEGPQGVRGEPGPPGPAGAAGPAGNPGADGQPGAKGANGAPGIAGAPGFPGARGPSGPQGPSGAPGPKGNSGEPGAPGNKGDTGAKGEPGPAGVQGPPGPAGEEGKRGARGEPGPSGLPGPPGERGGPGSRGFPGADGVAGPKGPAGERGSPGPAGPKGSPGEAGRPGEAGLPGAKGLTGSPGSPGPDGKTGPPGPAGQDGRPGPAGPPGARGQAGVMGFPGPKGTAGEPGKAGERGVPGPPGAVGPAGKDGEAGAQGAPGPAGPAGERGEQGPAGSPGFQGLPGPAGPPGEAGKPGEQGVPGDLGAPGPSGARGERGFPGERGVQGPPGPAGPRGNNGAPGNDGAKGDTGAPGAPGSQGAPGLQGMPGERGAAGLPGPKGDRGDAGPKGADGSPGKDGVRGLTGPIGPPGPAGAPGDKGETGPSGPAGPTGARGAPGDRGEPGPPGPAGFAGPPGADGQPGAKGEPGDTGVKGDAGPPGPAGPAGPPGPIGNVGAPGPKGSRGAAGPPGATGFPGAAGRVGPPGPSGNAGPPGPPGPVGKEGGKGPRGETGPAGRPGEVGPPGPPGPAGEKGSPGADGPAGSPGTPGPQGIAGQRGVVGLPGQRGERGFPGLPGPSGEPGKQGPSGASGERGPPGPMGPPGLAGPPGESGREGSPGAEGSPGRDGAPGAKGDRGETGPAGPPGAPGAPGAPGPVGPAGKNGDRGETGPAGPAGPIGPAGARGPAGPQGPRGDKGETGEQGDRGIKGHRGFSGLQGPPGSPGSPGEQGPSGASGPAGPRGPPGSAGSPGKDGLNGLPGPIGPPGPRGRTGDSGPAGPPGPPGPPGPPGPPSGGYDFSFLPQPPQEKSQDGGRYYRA
T1 sequence (P02466 86-1125 limits assumed): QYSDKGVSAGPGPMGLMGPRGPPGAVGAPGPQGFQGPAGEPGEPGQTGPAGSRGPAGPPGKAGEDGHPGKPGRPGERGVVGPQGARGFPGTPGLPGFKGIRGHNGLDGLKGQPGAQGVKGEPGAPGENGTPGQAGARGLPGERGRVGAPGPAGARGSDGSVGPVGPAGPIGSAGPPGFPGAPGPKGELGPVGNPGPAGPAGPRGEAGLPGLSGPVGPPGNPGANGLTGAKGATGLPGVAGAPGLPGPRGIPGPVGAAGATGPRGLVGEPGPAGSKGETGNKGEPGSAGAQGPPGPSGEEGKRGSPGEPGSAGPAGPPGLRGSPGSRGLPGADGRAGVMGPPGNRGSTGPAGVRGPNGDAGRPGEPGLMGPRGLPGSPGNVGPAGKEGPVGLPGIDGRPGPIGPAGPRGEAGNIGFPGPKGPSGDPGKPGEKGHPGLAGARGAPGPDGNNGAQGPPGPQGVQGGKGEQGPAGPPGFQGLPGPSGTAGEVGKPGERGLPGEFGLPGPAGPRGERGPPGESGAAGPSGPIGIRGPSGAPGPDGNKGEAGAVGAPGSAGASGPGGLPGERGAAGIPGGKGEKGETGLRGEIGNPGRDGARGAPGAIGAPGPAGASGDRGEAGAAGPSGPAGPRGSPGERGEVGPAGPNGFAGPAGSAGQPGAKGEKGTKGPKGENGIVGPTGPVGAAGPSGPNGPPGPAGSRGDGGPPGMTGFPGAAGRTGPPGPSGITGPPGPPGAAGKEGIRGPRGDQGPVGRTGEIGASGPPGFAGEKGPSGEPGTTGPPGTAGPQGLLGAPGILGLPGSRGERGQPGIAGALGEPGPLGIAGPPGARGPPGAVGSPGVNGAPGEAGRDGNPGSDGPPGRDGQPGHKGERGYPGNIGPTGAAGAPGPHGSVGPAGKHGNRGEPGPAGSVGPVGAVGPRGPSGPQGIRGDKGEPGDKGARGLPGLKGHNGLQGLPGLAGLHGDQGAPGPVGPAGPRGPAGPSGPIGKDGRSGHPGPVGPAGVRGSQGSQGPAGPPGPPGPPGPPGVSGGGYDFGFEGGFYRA

| SMILES | Kd [1] [µM] | tissue uptake at 2 h ([2]; blood) [%ID/g] | tissue uptake at 2 h ([2]; heart) [%ID/g] | tissue uptake at 2 h ([2]; kidney) [%ID/g] | tissue uptake at 2 h ([2]; liver) [%ID/g] | tissue uptake at 2 h ([2]; lungs) [%ID/g] | tissue uptake at 2 h ([2]; sm. intestine) [%ID/g] | tissue uptake at 2 h ([2]; spleen) [%ID/g] | lung uptake in BM-treated (fibrotic) mice compared to sham, in words [3] | Biodistribution % ID/g, blood ([3]; in vivo, 2 h) [% ID/g] | Biodistribution % ID/g, heart ([3]; in vivo, 2 h) [% ID/g] | Biodistribution % ID/g, kidney ([3]; in vivo, 2 h) [% ID/g] | Biodistribution % ID/g, liver ([3]; in vivo, 2 h) [% ID/g] | Biodistribution % ID/g, lungs ([3]; in vivo, 2 h) [% ID/g] | Biodistribution % ID/g, sm. intestine ([3]; in vivo, 2 h) [% ID/g] | Biodistribution % ID/g, spleen ([3]; in vivo, 2 h) [% ID/g] | route of excretion ([3]; mouse, in vivo) | tissue uptake at 2.5 h ([2]; liver) [%ID/g] | Biodistribution % ID/g, liver ([3]; in vivo, 2.5 h) [% ID/g] | further results |
| --- | --- | --- | --- | --- | --- | --- | --- | --- | --- | --- | --- | --- | --- | --- | --- | --- | --- | --- | --- | --- |
| CC(C)C[C@H](NC(=O)[C@@H]1CSSC[C@H](NC(=O)[C@H](Cc2c[nH]cn2)NC(=O)[C@H](Cc2c[nH]c3ccccc23)NC(=O)[C@H](CCC(N)=O)NC(=O)CNC(=O)CCC(C(=O)O)N2CCN(CC(=O)O)CCN(CC(=O)O)CC2)C(=O)N[C@@H](Cc2ccc(O)cc2)C(=O)N[C@@H]([C@@H](C)O)C(=O)N[C@@H](CC(C)C)C(=O)N[C@@H](Cc2ccccc2)C(=O)N2CCC[C@H]2C(=O)N[C@@H](Cc2c[nH]cn2)C(=O)N[C@@H](Cc2c[nH]cn2)C(=O)N[C@@H](Cc2ccc(O)cc2)C(=O)N1)C(=O)N[C@@H](Cc1ccc(O)cc1)C(=O)NCC(N)=O (stereo partly drawn) [CBP6] ({NODAGA}-GQWHCYTLFPHHYCLYG-NH2; disulfide 5-14; C-terminus assumed) | 14.6 ± 5.8 | 0.147 ± 0.01 | 0.121 ± 0.017 | 13.4 ± 1.23 | 2.64 ± 0.144 | 0.013 ± 0.002 | 0.747 ± 0.168 | 0.669 ± 0.03 | greater lung uptake in BM-treated mice | 0.279 ± 0.096 | 0.156 ± 0.016 | 14.008 ± 0.727 | 2.503 ± 0.218 | 0.019 ± 0.003 | 0.938 ± 0.164 | 0.775 ± 0.084 | excreted mainly through the kidneys | – | – | – |
| C[C@@H](O)[C@@H]1NC(=O)[C@@H](NC(=O)[C@H](Cc2c[nH]cn2)NC(=O)[C@H](Cc2c[nH]c3ccccc23)NC(=O)[C@H](CCC(N)=O)NC(=O)CNC(=O)CCC(C(=O)O)N2CCN(CC(=O)O)CCN(CC(=O)O)CC2)CSSC[C@@H](C(=O)N[C@@H](Cc2ccccc2)C(=O)N[C@@H](Cc2ccc(O)cc2)C(=O)NCC(N)=O)NC(=O)[C@H](Cc2ccc(O)cc2)NC(=O)[C@H](Cc2c[nH]cn2)NC(=O)[C@H](Cc2c[nH]cn2)NC(=O)[C@@H]2CCCN2C(=O)[C@H](Cc2ccccc2)NC(=O)[C@H](CCCNC(=N)N)NC(=O)[C@H]([C@@H](C)O)NC1=O (stereo partly drawn) [CBP5] ({NODAGA}-GQWHCTTRFPHHYCFYG-NH2; disulfide 5-14) | 7.2 ± 5.2 | 0.11 ± 0.018 | 0.075 ± 0.009 | 30.5 ± 2.01 | 2.63 ± 0.146 | 0.318 ± 0.135 | 0.513 ± 0.1 | 0.815 ± 0.42 | greater lung uptake in BM-treated mice | 0.121 ± 0.028 | 0.094 ± 0.013 | 18.368 ± 1.909 | 3.836 ± 0.770 | 0.623 ± 0.320 | 0.431 ± 0.089 | 1.588 ± 0.546 | excreted mainly through the kidneys | – | – | tissue uptake at 2 h ([2]; bone): 0.703 ± 0.343 %ID/g; tissue uptake dose at 2 h ([2]; Biodistribution % ID/lung): 0.032 ± 0.016 %ID; Biodistribution % ID/g, bone ([3]; in vivo, 2 h): 0.490 ± 0.237 % ID/g; Biodistribution % ID/lung ([3]; mouse, in vivo): 0.016 ± 0.007 % ID/lung |
| CC(C)C[C@H](NC(=O)[C@@H]1CSSC[C@@H](NC(=O)[C@H](Cc2c[nH]cn2)NC(=O)[C@H](Cc2c[nH]c3ccccc23)NC(=O)[C@H](CCCCNC(=O)CNC(=O)CCC(C(=O)O)N2CCN(CC(=O)O)CCN(CC(=O)O)CC2)NC(=O)CNC(=O)CCC(C(=O)O)N2CCN(CC(=O)O)CCN(CC(=O)O)CC2)C(=O)N[C@@H]([C@@H](C)O)C(=O)N[C@@H]([C@@H](C)O)C(=O)N[C@@H](CCCCNC(=O)CCC(C(=O)O)N2CCN(CC(=O)O)CCN(CC(=O)O)CC2)C(=O)N[C@@H](Cc2ccccc2)C(=O)N2CCC[C@H]2C(=O)N[C@@H](Cc2c[nH]cn2)C(=O)N[C@@H](Cc2c[nH]cn2)C(=O)N[C@@H](Cc2ccc(O)cc2)C(=O)N1)C(=O)N[C@@H](Cc1ccc(O)cc1)C(=O)N[C@@H](Cc1ccc(-c2ccccc2)cc1)C(N)=O (stereo partly drawn) (64Cu complex, metal not drawn) [CBP11] | – | – | – | – | – | – | – | – | – | – | – | – | – | – | – | – | – | 1.3 ± 0.086 | 0.953 ± 0.069 | tissue uptake at 2.5 h ([2]; blood): 0.21 ± 0.017 %ID/g; tissue uptake at 2.5 h ([2]; heart): 0.143 ± 0.008 %ID/g; tissue uptake at 2.5 h ([2]; spleen): 0.408 ± 0.015 %ID/g; Biodistribution % ID/g, blood ([3]; in vivo, 2.5 h): 0.373 ± 0.180 % ID/g; Biodistribution % ID/g, heart ([3]; in vivo, 2.5 h): 0.170 ± 0.044 % ID/g; Biodistribution % ID/g, spleen ([3]; in vivo, 2.5 h): 0.475 ± 0.063 % ID/g |
| CC(C)C[C@H](NC(=O)[C@@H]1CSSC[C@H](NC(=O)[C@H](Cc2c[nH]cn2)NC(=O)[C@H](Cc2c[nH]c3ccccc23)NC(=O)[C@H](CCCCNC(=O)CNC(=O)CN2CCN(CC(=O)O)CCN(CC(=O)O)CC2)NC(=O)CNC(=O)CN2CCN(CC(=O)O)CCN(CC(=O)O)CC2)C(=O)N[C@@H]([C@@H](C)O)C(=O)N[C@@H]([C@@H](C)O)C(=O)N[C@@H](CCCCNC(=O)CN2CCN(CC(=O)O)CCN(CC(=O)O)CC2)C(=O)N[C@@H](Cc2ccccc2)C(=O)N2CCC[C@H]2C(=O)N[C@@H](Cc2c[nH]cn2)C(=O)N[C@@H](Cc2c[nH]cn2)C(=O)N[C@@H](Cc2ccc(O)cc2)C(=O)N1)C(=O)N[C@@H](Cc1ccc(O)cc1)C(=O)N[C@@H](Cc1ccc(-c2ccccc2)cc1)C(N)=O [CBP10, Al^18F-NOTA-cPep(7)] | – | – | – | – | – | – | – | – | – | – | – | – | – | – | – | – | – | 14 ± 1 | 27.231 ± 0.995 | tissue uptake at 2.5 h ([2]; bone): 2.53 ± 0.735 %ID/g; tissue uptake at 2.5 h ([2]; kidney): 26.2 ± 4.85 %ID/g; tissue uptake at 2.5 h ([2]; sm. intestine): 1.12 ± 0.48 %ID/g; Biodistribution % ID/g, bone ([3]; in vivo, 2.5 h): 2.963 ± 0.716 % ID/g; Biodistribution % ID/g, kidney ([3]; in vivo, 2.5 h): 44.170 ± 16.811 % ID/g; Biodistribution % ID/g, sm. intestine ([3]; in vivo, 2.5 h): 1.492 ± 0.542 % ID/g |
